Measured values taken from patent US20220354960A1, “IMMUNE CHECKPOINT BLOCKING BISPECIFIC MOLECULES” (THE SCRIPPS RESEARCH INSTITUTE, priority 2019, published 2022).

Assays:
[1] = target: human MC1R on HEK293 cells that overexpress it (human) (UniProt Q01726); assay: cell-based or functional assay
[2] = target: MC1R on B16-SIY cells (mouse) (UniProt Q01727); assay: cell-based or functional assay
[3] = target: human PD-L1 (extracellular domain)-Fc fusion protein (human) (UniProt Q9NZQ7); assay: ELISA on human PD-L1 (extracellular domain)-Fc fusion protein
[4] = target: human PD-L1 (extracellular domain)-Fc fusion protein (human) (UniProt Q9NZQ7); assay: ELISA, PD-L1-Fc coated, detection with HRP anti-human kappa light chain antibody
[5] = target: human MC1R on HEK293 cells that overexpress it (human) (UniProt Q01726); assay: cell surface ELISA on fixed HEK293-MC1R cells

Chain of human MC1R on HEK293 cells that overexpress it (human) (Q01726 whole entry): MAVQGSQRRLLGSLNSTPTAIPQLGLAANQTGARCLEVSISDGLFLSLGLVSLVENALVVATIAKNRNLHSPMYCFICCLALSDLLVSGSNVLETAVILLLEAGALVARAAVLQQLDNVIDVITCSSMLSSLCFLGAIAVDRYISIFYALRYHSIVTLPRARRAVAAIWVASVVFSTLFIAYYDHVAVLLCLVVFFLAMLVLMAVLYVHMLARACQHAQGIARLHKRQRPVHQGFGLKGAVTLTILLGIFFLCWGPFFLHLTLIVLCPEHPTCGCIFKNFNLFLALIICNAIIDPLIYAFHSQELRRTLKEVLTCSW
Chain of MC1R on B16-SIY cells (mouse) (Q01727 whole entry, the tested form may be a part): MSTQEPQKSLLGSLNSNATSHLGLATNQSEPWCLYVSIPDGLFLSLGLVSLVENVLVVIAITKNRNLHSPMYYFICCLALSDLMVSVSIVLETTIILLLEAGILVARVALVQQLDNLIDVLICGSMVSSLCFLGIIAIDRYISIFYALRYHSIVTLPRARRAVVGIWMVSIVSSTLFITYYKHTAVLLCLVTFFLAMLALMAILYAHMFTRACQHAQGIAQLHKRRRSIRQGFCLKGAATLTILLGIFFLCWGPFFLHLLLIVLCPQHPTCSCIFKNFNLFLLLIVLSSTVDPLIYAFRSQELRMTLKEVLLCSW
Chain of human PD-L1 (extracellular domain)-Fc fusion protein (human) (Q9NZQ7 19-238): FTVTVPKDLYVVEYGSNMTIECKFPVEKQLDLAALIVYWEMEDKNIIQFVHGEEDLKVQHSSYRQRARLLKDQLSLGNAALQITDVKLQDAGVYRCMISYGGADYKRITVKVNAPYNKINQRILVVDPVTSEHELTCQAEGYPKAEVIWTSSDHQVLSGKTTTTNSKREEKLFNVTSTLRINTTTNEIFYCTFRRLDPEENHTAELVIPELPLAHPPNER

Row | CRE-Luc reporter in HEK 293 cells overexpressing MC1R, EC50 [1] | B16-SIY cells cAMP-Glo Assay, EC50 [2] | EC50 [3] | EC50 [4] | EC50 [5] | Substance
1 | 0.09 nM | 0.06 nM | – | – | – | NDP-MSH peptide ([Nle4, D-Phe7]-MSH)
2 | – | 0.06 nM | – | – | – | NDP-MSH-Synagis (control antibody Synagis conjugated at the heavy chain N-terminal serine to H2NO-NDP-MSH)
3 | – | 0.02 nM | 0.087 nM | – | – | NDP-MSH-αPD-L1 N-terminal conjugate (Atezolizumab with engineered heavy chain N-terminal serine and 8x(G4S) linker, oxime-ligated to H2NO-NDP-MSH, LAR 2) (bispecific antibody)
4 | 2.7 nM | – | – | 0.17 nM | 1.72 nM | NDP-MSH-αPD-L1 conjugate (Avelumab with NDP-MSH conjugated to lysines through BCN/PEG24, LAR about 3.5) (bispecific antibody)
